The record followed here is paper PMC5024299.

The subject of the series is Pho4 (Saccharomyces cerevisiae). As to the kind of experiment: SELMAP (microfluidic SELEX-seq). Conditions: last round; On-chip SELMAP: 71-bp dsDNA library (20 ul, 50 uM) flowed 20 min over immobilised TF, MITOMI trapping, DNase 200 U/mL, PBS wash; binding buffer, pH and ….

Take “Pho4 consensus 6-mer CACGTG in 12-mer library”: the binding signal (frequency ratio score) was found to be 220.
